{"source": "paper PMC6181373", "experiment_in_all_cases": "SPRi", "conditions_in_all_cases": "5' disulfide, aptamer on gold chip, 10 mM HEPES, 120 mM NaCl, 10 mM KCl, 5 mM MgCl2, pH 7.4, targets in PBS with 0.1% Tween, random-DNA signal subtracted, temperature …", "key": {"[1]": {"molecular_target": "LDL particle (all LDL-P; ApoB100 lipoprotein) (UniProt P04114)"}, "[2]": {"system": "HDL particle"}, "[3]": {"molecular_target": "SD-LDL (small dense LDL particle; ApoB100 lipoprotein) (UniProt P04114)"}, "[4]": {"molecular_target": "LDL particle (all LDL-P; ApoB100 lipoprotein) (UniProt P04114)", "remark": "listed apart in the source"}, "[5]": {"molecular_target": "LF-LDL (LDL subfraction particle; ApoB100 lipoprotein) (UniProt P04114)"}}, "note": "Several values for one entry are separate records, joined by “and”; a condition that tells them apart may be missing. Equal values may be shown once.", "data": [{"sequence": "AACTACATGGTATGTGGTGAACTAAACCATTCTTGTCTCGCATTTTTCTCTTTTATATTATTTGACGTACAATGTACCC [LDL-A38]", "values": [{"measurement": "Kd", "setting": "[1]", "result": 0.0455, "unit": "nM"}, {"measurement": "Kd", "setting": "[2]", "result": 11.5, "unit": "nM"}, {"measurement": "Kd", "setting": "[3]", "result": 0.234, "unit": "nM"}, {"measurement": "Kd", "setting": "[4]", "result": "0.0207 nM and 0.0178 nM"}]}, {"sequence": "AACTACATGGTATGTGGTGAACTGTCAGCTTCTTCTATATAATTCACCTTGCCTCTCGTTCCTGACGTACAATGTACCC [LDL-A2]", "values": [{"measurement": "Kd", "setting": "[1]", "result": 0.0421, "unit": "nM"}, {"measurement": "Kd", "setting": "[2]", "result": 7.25, "unit": "nM"}, {"measurement": "Kd", "setting": "[5]", "result": 0.0159, "unit": "nM"}, {"measurement": "Kd", "setting": "[4]", "result": "0.015 nM and 0.00512 nM"}]}, {"sequence": "AACTACATGGTATGTGGTGAACTAACCTTAATTTACCCTTGTTTTATCATTTCCATCATAGCTGACGTACAATGTACCC [LDL-A12]", "values": [{"measurement": "Kd", "setting": "[1]", "result": 0.0497, "unit": "nM"}, {"measurement": "Kd", "setting": "[2]", "result": 9.69, "unit": "nM"}, {"measurement": "Kd", "setting": "[3]", "result": 0.023, "unit": "nM"}, {"measurement": "Kd", "setting": "[4]", "result": "0.0108 nM and 0.0466 nM"}]}, {"sequence": "AACTACATGGTATGTGGTGAACTACCTCGATTTTATATTATTTCGCTTACCAACAACTGCAGAGACGTACAATGTACCC [LDL-A1]", "values": [{"measurement": "Kd", "setting": "[1]", "result": 0.0531, "unit": "nM"}, {"measurement": "Kd", "setting": "[2]", "result": 8.26, "unit": "nM"}, {"measurement": "Kd", "setting": "[3]", "result": 0.302, "unit": "nM"}, {"measurement": "Kd", "setting": "[5]", "result": 0.0327, "unit": "nM"}, {"measurement": "Kd", "setting": "[4]", "result": 0.0214, "unit": "nM"}]}]}
